Data on one molecule can be found in patent US20160194407A1 (AstraZeneca / MedImmune, published 2016).

Experiment in all cases: SPR ProteOn, CD73 variant on HTG chip
For one test, the target named is T1, human CD73 V144K + N185G (human, UniProt P21589 27-553).
T1 chain: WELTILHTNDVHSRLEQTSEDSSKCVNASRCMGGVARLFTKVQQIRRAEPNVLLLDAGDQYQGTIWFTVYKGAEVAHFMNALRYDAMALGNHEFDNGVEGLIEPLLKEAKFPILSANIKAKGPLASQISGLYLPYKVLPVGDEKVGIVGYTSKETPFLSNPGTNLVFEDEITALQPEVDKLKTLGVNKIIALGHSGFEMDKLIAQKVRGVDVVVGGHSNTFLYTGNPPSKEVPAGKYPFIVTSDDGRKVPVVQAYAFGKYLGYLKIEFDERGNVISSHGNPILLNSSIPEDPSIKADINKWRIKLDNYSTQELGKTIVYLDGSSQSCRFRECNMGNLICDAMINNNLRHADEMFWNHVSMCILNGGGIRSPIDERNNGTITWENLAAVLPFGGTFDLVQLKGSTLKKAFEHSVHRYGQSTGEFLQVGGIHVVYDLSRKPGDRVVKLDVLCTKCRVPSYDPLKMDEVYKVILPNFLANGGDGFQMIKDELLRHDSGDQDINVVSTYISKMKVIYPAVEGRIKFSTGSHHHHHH

Another test concerns the target T2, human CD73 K180A + N185G (human, UniProt P21589 27-553, K180A; N185G).
T2 sequence: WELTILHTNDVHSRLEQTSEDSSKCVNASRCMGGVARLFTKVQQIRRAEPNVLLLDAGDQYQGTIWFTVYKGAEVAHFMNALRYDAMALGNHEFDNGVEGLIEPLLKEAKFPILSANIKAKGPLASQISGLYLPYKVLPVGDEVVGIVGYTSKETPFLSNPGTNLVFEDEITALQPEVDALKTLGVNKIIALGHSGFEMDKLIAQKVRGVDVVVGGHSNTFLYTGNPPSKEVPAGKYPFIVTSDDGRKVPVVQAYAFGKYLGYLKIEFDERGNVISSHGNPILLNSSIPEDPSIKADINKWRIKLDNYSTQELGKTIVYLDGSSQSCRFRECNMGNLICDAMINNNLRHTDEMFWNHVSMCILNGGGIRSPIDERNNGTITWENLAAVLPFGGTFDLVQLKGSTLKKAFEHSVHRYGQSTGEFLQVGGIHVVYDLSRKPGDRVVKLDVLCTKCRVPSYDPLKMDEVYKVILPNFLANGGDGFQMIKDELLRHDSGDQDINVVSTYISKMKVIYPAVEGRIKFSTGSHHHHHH

In the next test the target is T3, CD73 chimera KO_Nterm (chicken (Gallus gallus); human).
T3 construct: Human limits converted from mature numbering (+26); also called N-terminal domain-swapped CD73
T3 chain: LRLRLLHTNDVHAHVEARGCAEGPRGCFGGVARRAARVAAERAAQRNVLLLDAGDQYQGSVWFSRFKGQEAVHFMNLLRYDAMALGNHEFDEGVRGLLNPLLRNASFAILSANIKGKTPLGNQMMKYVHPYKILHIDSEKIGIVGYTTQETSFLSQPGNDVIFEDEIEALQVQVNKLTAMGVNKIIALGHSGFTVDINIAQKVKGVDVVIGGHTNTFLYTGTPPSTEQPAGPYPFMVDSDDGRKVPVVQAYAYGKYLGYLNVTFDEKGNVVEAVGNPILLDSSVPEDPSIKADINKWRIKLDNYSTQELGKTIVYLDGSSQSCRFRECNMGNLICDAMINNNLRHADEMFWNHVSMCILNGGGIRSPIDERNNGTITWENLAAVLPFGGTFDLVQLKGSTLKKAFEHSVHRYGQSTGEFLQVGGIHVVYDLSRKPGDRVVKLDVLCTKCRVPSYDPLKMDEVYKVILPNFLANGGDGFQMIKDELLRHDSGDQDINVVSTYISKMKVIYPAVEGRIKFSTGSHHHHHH

B1: MEDI9447 (antibody, V domains shown)
VH: EVQLLESGGGLVQPGGSLRLSCAASGFTFSSYAYSWVRQAPGKGLEWVSAISGSGGRTYYADSVKGRFTISRDNSKNTLYLQMNSLRAEDTAVYYCARLGYGRVDEWGRGTLVTVSS
VL: QSVLTQPPSASGTPGQRVTISCSGSLSNIGRNPVNWYQQLPGTAPKLLIYLDNLRLSGVPDRFSGSKSGTSASLAISGLQSEDEADYYCATWDDSHPGWTFGGGTKLTVL
notes: also called clone 10.3 antibody; 73combo3
On to B1, for which the binding result is recorded as “no binding” with human CD73 V144K + N185G, “no binding” with human CD73 K180A + N185G and “no binding (tested: 5 nM to 0.3 nM)” in the test with CD73 chimera KO_Nterm.
